# US20140271457A1 (AbbVie / Abbott, published 2014)
# Substitutions are numbered along the chain they refer to.
# B1: DVD3158 (bispecific antibody, IgG1)
# VH: EVQLVQSGAEVKKPGASVKVSCKASGYTFTSYWMHWVRQAPGQGLEWIGNINPKGGSNIYNEKFQGRVTMTRDTSISTAYMELSRLRSDDTAVYYCARLDYFGDSFDLWGQGTTVTVSSGGGGSGGGGSEVQLVESGGGLVQPGGSLRLSCAASGFTFSNYGVEWVRQAPGKGLEWVSGIWADGSTHYADTVKSRFTISRDNSKNTLYLQMNSLRAEDTAVYYCAREWQHGPVAYWGQGTLVTVSS
# VL: DIQMTQSPSSLSASVGDRVTITCRASQGIRNYLNWYQQKPGKAPKLLIYYASNLEVGVPSRFSGSGSGTDYTLTISSLQPEDFATYYCQQDNRFPYTFGGGTKVEIKRGGSGGGGSGDIQMTQSPSSLSASVGDRVTITCKASQLVSSAVAWYQQKPGKAPKLLIYWASTLHTGVPSRFSGSGSGTDFTLTISSLQPEDFATYYCQQHYRTPFTFGQGTKLEIKR
# notes: DVD-Ig; wt hIgG1 + kappa constants
# B2: DVD3159 (bispecific antibody, IgG1)
# VH: EVQLVQSGAEVKKPGASVKVSCKASGYTFTSYWMHWVRQAPGQGLEWIGNINPKGGSNIYNEKFQGRVTMTRDTSISTAYMELSRLRSDDTAVYYCARLDYFGDSFDLWGQGTTVTVSSASTKGPEVQLVESGGGLVQPGGSLRLSCAASGFTFSNYGVEWVRQAPGKGLEWVSGIWADGSTHYADTVKSRFTISRDNSKNTLYLQMNSLRAEDTAVYYCAREWQHGPVAYWGQGTLVTVSS
# VL: DIQMTQSPSSLSASVGDRVTITCRASQGIRNYLNWYQQKPGKAPKLLIYYASNLEVGVPSRFSGSGSGTDYTLTISSLQPEDFATYYCQQDNRFPYTFGGGTKVEIKRTVAAPDIQMTQSPSSLSASVGDRVTITCKASQLVSSAVAWYQQKPGKAPKLLIYWASTLHTGVPSRFSGSGSGTDFTLTISSLQPEDFATYYCQQHYRTPFTFGQGTKLEIKR
# notes: as for B1
# B3: DVD3147 (bispecific antibody, IgG1)
# VH: EVQLVESGGGLVQPGGSLRLSCAASGFTFSNYGVTWVRQAPGKGLEWVSMIWADGSTHYASSVKGRFTISRDNSKNTLYLQMNSLRAEDTAVYYCAREWQHGPVAYWGQGTLVTVSSASTKGPSVFPLAPEVQLVQSGAEVKKPGASVKVSCKASGYTFTSYWMHWVRQAPGQGLEWIGNINPKGGSNIYNEKFQGRVTMTRDTSISTAYMELSRLRSDDTAVYYCARLDYFGDSFDLWGQGTTVTVSS
# VL: DIQMTQSPSSLSASVGDRVTITCRASQLVSSAVAWYQQKPGKAPKLLIYWASARHTGVPSRFSGSGSGTDFTLTISSLQPEDFATYYCQQHYKTPFTFGQGTKLEIKRTVAAPDIQMTQSPSSLSASVGDRVTITCRASQGIRNYLNWYQQKPGKAPKLLIYYASNLEVGVPSRFSGSGSGTDYTLTISSLQPEDFATYYCQQDNRFPYTFGGGTKVEIKR
# notes: as for B1
# B4: DVD3157 (bispecific antibody, IgG1)
# VH: B3 VH with T35E, M50G, S61D, S62T, G65S
# VL: B3 VL with R24K, A53T, R54L, K93R
# notes: as for B1
# B5: DVD2791 (bispecific antibody, human IgG1, kappa)
# heavy: not shown
# light: DIQMTQSPSSLSASVGDRVTISCRASQDIRNYLNWYQQKPGKAPKLLIFYTSKLHSGVPSRFSGSGSGTDYTLTISSLQPEDIATYYCQQGLTPPLTFGGGTKVEIKRTVAAPSVFIFPPDIQMTQSPSSLSASVGDRVTITCRASQDISQYLNWYQQKPGKAPKLLIYYTSRLQSGVPSRFSGSGSGTDFTLTISSLQPEDFATYFCQQGNTWPPTFGQGTKLEIKRTVAAPSVFIFPPSDEQLKSGTASVVCLLNNFYPREAKVQWKVDNALQSGNSQESVTEQDSKDSTYSLSSTLTLSKADYEKHKVYACEVTHQGLSSPVTKSFNRGEC
# B6: AB398 (antibody, V domains shown)
# VH: EVQLVQSGAEVKKPGASVKVSCKASGYTFTTYGVSWVRQAPGQGLEWMGEIYPGNYNTYYNEKFRGRVTMTTDTSTSTAYMELRSLRSDDTAVYYCARWRTSYFSDYGYFDYWGQGTTVTVSS
# VL: DVVMTQSPLSLPVTLGQPASISCRSSQSLVHSHGNTYLHWYQQRPGQSPRLLIYTVSNRFSGVPDRFSGSGSGTDFTLKISRVEAEDVGVYYCSQSTHVPYTFGGGTKVEIKR
# B7: DVD2738 (bispecific antibody, human IgG1, kappa)
# heavy: not shown
# light: DIQMTQSPSSLSASVGDRVTISCRASQDIRNYLNWYQQKPGKAPKLLIFYTSKLHSGVPSRFSGSGSGTDYTLTISSLQPEDIATYYCQQGLTPPLTFGGGTKVEIKRGGSGGGGSGDIQMTQSPSSLSASVGDRVTITCKASQLVSSAVAWYQQKPGKAPKLLIYWASTLHTGVPSRFSGSGSGTDFTLTISSLQPEDFATYYCQQHYRTPFTFGQGTKLEIKRTVAAPSVFIFPPSDEQLKSGTASVVCLLNNFYPREAKVQWKVDNALQSGNSQESVTEQDSKDSTYSLSSTLTLSKADYEKHKVYACEVTHQGLSSPVTKSFNRGEC
# B8: DVD2789 (bispecific antibody, human IgG1, kappa)
# heavy: not shown
# light: DIQMTQSPSSLSASVGDRVTISCRASQDIRNYLNWYQQKPGKAPKLLIFYTSKLHSGVPSRFSGSGSGTDYTLTISSLQPEDIATYYCQQGLTPPLTFGGGTKVEIKRTVAAPDIQMTQSPSSLSASVGDRVTITCRASQDISQYLNWYQQKPGKAPKLLIYYTSRLQSGVPSRFSGSGSGTDFTLTISSLQPEDFATYFCQQGNTWPPTFGQGTKLEIKRTVAAPSVFIFPPSDEQLKSGTASVVCLLNNFYPREAKVQWKVDNALQSGNSQESVTEQDSKDSTYSLSSTLTLSKADYEKHKVYACEVTHQGLSSPVTKSFNRGEC
# B9: AB397 (antibody, V domains shown)
# VH: EVTLRESGPGLVKPTQTLTLTCTLYGFSLSTSDMGVDWIRQPPGKGLEWLAHIWWDDVKRYNPALKSRLTISKDTSKNQVVLKLTSVDPVDTATYYCARTVSSGYIYYAMDYWGQGTLVTVSS
# VL: DIQMTQSPSSLSASVGDRVTISCRASQDIRNYLNWYQQKPGKAPKLLIFYTSKLHSGVPSRFSGSGSGTDYTLTISSLQPEDIATYYCQQGLTPPLTFGGGTKVEIKR
# B10: DVD2788 (bispecific antibody, human IgG1, kappa)
# heavy: not shown
# light: DIQMTQSPSSLSASVGDRVTISCRASQDIRNYLNWYQQKPGKAPKLLIFYTSKLHSGVPSRFSGSGSGTDYTLTISSLQPEDIATYYCQQGLTPPLTFGGGTKVEIKRGGSGGGGSGDIQMTQSPSSLSASVGDRVTITCRASQDISQYLNWYQQKPGKAPKLLIYYTSRLQSGVPSRFSGSGSGTDFTLTISSLQPEDFATYFCQQGNTWPPTFGQGTKLEIKRTVAAPSVFIFPPSDEQLKSGTASVVCLLNNFYPREAKVQWKVDNALQSGNSQESVTEQDSKDSTYSLSSTLTLSKADYEKHKVYACEVTHQGLSSPVTKSFNRGEC
# B11: DVD2692 (bispecific antibody, human IgG1, kappa)
# heavy: not shown
# light: DIQMTQSPSSLSASVGDRVTISCRASQDIRNYLNWYQQKPGKAPKLLIFYTSKLHSGVPSRFSGSGSGTDYTLTISSLQPEDIATYYCQQGLTPPLTFGGGTKVEIKRTVAAPDIQMTQSPSSLSASVGDRVTITCRASQLVSSAVAWYQQKPGKAPKLLIYWASARHTGVPSRFSGSGSGTDFTLTISSLQPEDFATYYCQQHYKTPFTFGQGTKLEIKRTVAAPSVFIFPPSDEQLKSGTASVVCLLNNFYPREAKVQWKVDNALQSGNSQESVTEQDSKDSTYSLSSTLTLSKADYEKHKVYACEVTHQGLSSPVTKSFNRGEC
# B12: DVD2742 (bispecific antibody, human IgG1, kappa)
# heavy: not shown
# light: B11 light with R137K, A166T, R167L, K206R
# B13: DVD2739 (bispecific antibody, human IgG1, kappa)
# heavy: not shown
# light: B11 light with R137K, A166T, R167L, K206R
# B14: DVD2691 (bispecific antibody, human IgG1, kappa)
# heavy: not shown
# light: DIQMTQSPSSLSASVGDRVTISCRASQDIRNYLNWYQQKPGKAPKLLIFYTSKLHSGVPSRFSGSGSGTDYTLTISSLQPEDIATYYCQQGLTPPLTFGGGTKVEIKRTVAAPSVFIFPPDIQMTQSPSSLSASVGDRVTITCRASQLVSSAVAWYQQKPGKAPKLLIYWASARHTGVPSRFSGSGSGTDFTLTISSLQPEDFATYYCQQHYKTPFTFGQGTKLEIKRTVAAPSVFIFPPSDEQLKSGTASVVCLLNNFYPREAKVQWKVDNALQSGNSQESVTEQDSKDSTYSLSSTLTLSKADYEKHKVYACEVTHQGLSSPVTKSFNRGEC
# B15: DVD2741 (bispecific antibody, human IgG1, kappa)
# heavy: not shown
# light: B14 light with R144K, A173T, R174L, K213R
# Target: Recombinant Human IL-13 (human, UniProt P35225 35-146, limits assumed)
# Test: Biacore SPR
# Procedure, shortened: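 Antibodies or DVD-Ig captured on anti-mouse IgG (Fcγ) CM5 surface, SPR at 25 °C in HBS-EP+. Antigen at 0.8–100 nM, 50 μl/min; association 5 min, dissociation 10 min. kon and koff came from a global 1:1 fit with local Rmax.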
# Target sequence in this assay (P35225 35-146 limits assumed): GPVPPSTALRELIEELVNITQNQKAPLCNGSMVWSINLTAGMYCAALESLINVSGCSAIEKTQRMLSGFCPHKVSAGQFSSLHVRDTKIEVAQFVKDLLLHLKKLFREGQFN
Kd [nM],koff [s⁻¹],kon [M⁻¹ s⁻¹],Binder
0.057,6.7e-05,1.2e+06,B1
0.039,5.4e-05,1.4e+06,B2
< 0.0077,< 1e-06,130000,B3
0.0095,1.1e-06,110000,B4

# Target: Recombinant Human IL-13 (human, UniProt P35225 35-146, limits assumed)
# Test: cell-based or functional assay
# Target sequence in this assay (P35225 35-146 limits assumed): as above
row,IL-13 Neutralization Assay IC50 [nM],Binder
1,0.245,B5
2,0.068,B6
3,0.149,B7
4,0.078,B8
5,0.066,B9
6,0.072,B10
7,0.131,B11
8,0.064,B12
9,0.132,B13
10,0.105,B14
11,0.118,B15
